Measured values: the supplement of paper PMC11780869

Test system: Bacillus subtilis
Assay: cleaved RNA product abundance (RNA/gDNA barcode ratio) relative to median wild-type variant (ratio to wild type); higher = more accumulation of the downstream cleavage product
Conditions: cleavage site: cggR-gapA (positions -7 to +36 mutated)
How it was run: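 Cleaved product abundance for each construct is its RNA-to-gDNA barcode ratio, scaled to the median construct carrying the unmutated site. Cleaved RNA was isolated on a gel, reverse transcribed and barcode-sequenced, with genomic DNA barcodes sequenced alongside and UMIs collapsed. The reporters were truncated aprE or tetM mRNAs with barcoded, mutagenized RNase Y cleavage-site windows integrated into the B. subtilis chromosome, and cultures grew in LB at 37°C from OD600 0.0003 to 0.3.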

[1] = experiment (reporter, strain, medium): exp 2b: truncated aprE reporter, strain BJT200
[2] = experiment (reporter, strain, medium): exp 4a: truncated aprE reporter, strain BJT201 with 2% xylose (RNase J1 expressed)

Row | Sequence | cleaved RNA product abundance [1] | cleaved RNA product abundance [2] | cleaved RNA product abundance (experiment (reporter, strain, medium): exp 6: tetM reporter, strain 168)
1 | ACAGACGAAGGAGCCGCAAAGAAGTTATTAAGGGATCAATAATCCCTCAATATAATTATCTCTCACTTATTTAAA | 0.468 |  | 
2 | ACAGACGAAGGAGCCGCAAAGAAGTTATTAAGGGATCAATAATCCCTCAATATACATATCTCTCACTTATTTAAA |  | 0.736 | 
3 | ACAGACGAAGGAGCCGCAAAGAAGTTATTAAGGGATCAATAATCCCTCAATATAGATATCTCTCACTTATTTAAA | 0.534 |  | 
4 | ACAGACGAAGGAGCCGCAAAGAAGTTATTAAGGGATCAATAATCCCTCAATTTAAATATCTCTCACTTATTTAAA | 0.197 |  | 
5 | ACAGACGAAGGAGCCGCAAAGAAGTTATTAAGGGATCAATAATCCCTCACTATAAATATCTCTCACTTATTTAAA |  | 0.224 | 
6 | ACAGACGAAGGAGCCGCAAAGAAGTTATTAAGGGATCAATAATCCCTCATTATAAATATCTCTCACTTATTTAAA |  | 0.213 | 
7 | ACAGACGAAGGAGCCGCAAAGAAGTTATTAAGGGATCAATAATCCCTGAATATAAATATCTCTCACTTATTTAAA | 0.512 | 0.61 | 
8 | ACAGACGAAGGAGCCGCAAAGAAGTTATTAAGGGATCAATAATCCCTTAATATAAATATCTCTCACTTATTTAAA | 1.02 | 0.486 | 
9 | ACAGACGAAGGAGCCGCAAAGAAGTTATTAAGGGATCAATAATCCTTCAATATAAATATCTCTCACTTATTTAAA |  | 0.353 | 
10 | ACAGACGAAGGAGCCGCAAAGAAGTTATTAAGGGATCAATAATCGCTCAATATAAATATCTCTCACTTATTTAAA |  | 0.0655 | 
11 | ACAGACGAAGGAGCCGCAAAGAAGTTATTAAGGGATCAATAATCTATCAATATAAATATCTCTCACTTATTTAAA |  | 0.209 | 
12 | ACAGACGAAGGAGCCGCAAAGAAGTTATTAAGGGATCAATAATCTCTCAATATAAATATCTCTCACTTATTTAAA | 0.312 | 0.342 | 
13 | ACAGACGAAGGAGCCGCAAAGAAGTTATTAAGGGATCAATAATGCCTCAATATAAATATCTCTCACTTATTTAAA | 0.0953 | 0.138 | 
14 | ACAGACGAAGGAGCCGCAAAGAAGTTATTAAGGGATCAATAATTCCTCAATATAAATATCTCTCACTTATTTAAA |  | 0.22 | 
15 | ACAGACGAAGGAGCCGCAAAGAAGTTATTAAGGGATCAATACTCCCTCAATATAAATATCTCTCACTTATTTAAA |  | 0.579 | 
16 | ACAGACGAAGGAGCCGCAAAGAAGTTATTAAGGGATCAATAGTCCCTCAATATAAATATCTCTCACTTATTTAAA |  | 0.828 | 
17 | ACAGACGAAGGAGCCGCAAAGAAGTTATTAAGGGATCAATATTCCCTCAATATAAATATCTCTCACTTATTTAAA | 0.709 |  | 
18 | ACAGACGAAGGAGCCGCAAAGAAGTTATTAAGGGATCAATGATCCCTCAATATAAATATCTCTCACTTATTTAAA |  | 1.15 | 
19 | ACAGACGAAGGAGCCGCAAAGAAGTTATTAAGGGATCAATTATCCCTCAATATAAATATCTCTCACTTATTTAAA |  | 1.23 | 
20 | ACAGACGAAGGAGCCGCAAAGAAGTTATTAAGGGATCACTAATCCCTCAATATAAATATCTCTCACTTATTTAAA |  | 1.19 | 

Row | Sequence | cleaved RNA product abundance [1] | cleaved RNA product abundance [2] | cleaved RNA product abundance (experiment (reporter, strain, medium): exp 6: tetM reporter, strain 168)
21 | ACAGACGAAGGAGCCGCAAAGAAGTTATTAAGGGATCATTAATCCCTCAATATAAATATCTCTCACTTATTTAAA |  | 1.08 | 
22 | ACAGACGAAGGAGCCGCAAAGAAGTTATTAAGGGATCCATAATCCCTCAATATAAATATCTCTCACTTATTTAAA |  | 0.481 | 
23 | ACAGACGAAGGAGCCGCAAAGAAGTTATTAAGGGATCGATAATCCCTCAATATAAATATCTCTCACTTATTTAAA | 0.652 | 0.722 | 
24 | ACAGACGAAGGAGCCGCAAAGAAGTTATTAAGGGATCTATAATCCCTCAATATAAATATCTCTCACTTATTTAAA |  | 0.87 | 
25 | ACAGACGAAGGAGCCGCAAAGAAGTTATTAAGGGATGAAAAAACCCTCAATATAAATATCTCTCACTTATTTAAA | 0.411 | 0.642 | 
26 | ACAGACGAAGGAGCCGCAAAGAAGTTATTAAGGGATGAAAAACCCCTCAATATAAATATCTCTCACTTATTTAAA | 0.477 | 0.485 | 
27 | ACAGACGAAGGAGCCGCAAAGAAGTTATTAAGGGATGAAAAATACCTCAATATAAATATCTCTCACTTATTTAAA | 0.114 | 0.169 | 
28 | ACAGACGAAGGAGCCGCAAAGAAGTTATTAAGGGATGAAAAATCACTCAATATAAATATCTCTCACTTATTTAAA | 0.113 | 0.101 | 
29 | ACAGACGAAGGAGCCGCAAAGAAGTTATTAAGGGATGAAAAATCCATCAATATAAATATCTCTCACTTATTTAAA | 0.141 | 0.223 | 
30 | ACAGACGAAGGAGCCGCAAAGAAGTTATTAAGGGATGAAAAATCCCCCAATATAAATATCTCTCACTTATTTAAA |  | 0.184 | 
31 | ACAGACGAAGGAGCCGCAAAGAAGTTATTAAGGGATGAAAAATCCCTAAATATAAATATCTCTCACTTATTTAAA | 0.499 | 0.445 | 
32 | ACAGACGAAGGAGCCGCAAAGAAGTTATTAAGGGATGAAAAATCCCTCAAAATAAATATCTCTCACTTATTTAAA |  | 0.333 | 
33 | ACAGACGAAGGAGCCGCAAAGAAGTTATTAAGGGATGAAAAATCCCTCAAGATAAATATCTCTCACTTATTTAAA | 0.159 | 0.314 | 
34 | ACAGACGAAGGAGCCGCAAAGAAGTTATTAAGGGATGAAAAATCCCTCAATAAAAATATCTCTCACTTATTTAAA |  | 0.217 | 
35 | ACAGACGAAGGAGCCGCAAAGAAGTTATTAAGGGATGAAAAATCCCTCAATAGAAATATCTCTCACTTATTTAAA |  | 0.192 | 
36 | ACAGACGAAGGAGCCGCAAAGAAGTTATTAAGGGATGAAAAATCCCTCAATATAAAAATCTCTCACTTATTTAAA | 0.798 | 0.692 | 
37 | ACAGACGAAGGAGCCGCAAAGAAGTTATTAAGGGATGAAAAATCCCTCAATATAAACATCTCTCACTTATTTAAA |  | 0.772 | 
38 | ACAGACGAAGGAGCCGCAAAGAAGTTATTAAGGGATGAAAAATCCCTCAATATAAATAACTCTCACTTATTTAAA |  | 0.632 | 
39 | ACAGACGAAGGAGCCGCAAAGAAGTTATTAAGGGATGAAAAATCCCTCAATATAAATAGCTCTCACTTATTTAAA |  | 0.554 | 
40 | ACAGACGAAGGAGCCGCAAAGAAGTTATTAAGGGATGAAAAATCCCTCAATATAAATATCTCTCACTTATTTAAA | 0.78 | 0.781 | 0.985

Row | Sequence | cleaved RNA product abundance [1] | cleaved RNA product abundance [2] | cleaved RNA product abundance (experiment (reporter, strain, medium): exp 6: tetM reporter, strain 168)
41 | ACAGACGAAGGAGCCGCAAAGAAGTTATTAAGGGATGAAAAATCCCTCAATATAAATGTCTCTCACTTATTTAAA | 0.304 | 0.622 | 
42 | ACAGACGAAGGAGCCGCAAAGAAGTTATTAAGGGATGAAAAATCCCTCAATATAATTATCTCTCACTTATTTAAA |  | 0.171 | 
43 | ACAGACGAAGGAGCCGCAAAGAAGTTATTAAGGGATGAAAAATCCCTCAATATAGATATCTCTCACTTATTTAAA | 0.277 |  | 
44 | ACAGACGAAGGAGCCGCAAAGAAGTTATTAAGGGATGAAAAATCCCTCAATATCAATATCTCTCACTTATTTAAA |  | 0.0918 | 
45 | ACAGACGAAGGAGCCGCAAAGAAGTTATTAAGGGATGAAAAATCCCTCAATATGAATATCTCTCACTTATTTAAA |  | 0.151 | 
46 | ACAGACGAAGGAGCCGCAAAGAAGTTATTAAGGGATGAAAAATCCCTCAATATTAATATCTCTCACTTATTTAAA | 0.199 | 0.157 | 
47 | ACAGACGAAGGAGCCGCAAAGAAGTTATTAAGGGATGAAAAATCCCTCAATTTAAATATCTCTCACTTATTTAAA | 0.2 |  | 
48 | ACAGACGAAGGAGCCGCAAAGAAGTTATTAAGGGATGAAAAATCCCTCACTATAAATATCTCTCACTTATTTAAA | 0.161 |  | 
49 | ACAGACGAAGGAGCCGCAAAGAAGTTATTAAGGGATGAAAAATCCCTCAGTATAAATATCTCTCACTTATTTAAA |  | 0.224 | 
50 | ACAGACGAAGGAGCCGCAAAGAAGTTATTAAGGGATGAAAAATCCCTCATTATAAATATCTCTCACTTATTTAAA | 0.226 | 0.331 | 
51 | ACAGACGAAGGAGCCGCAAAGAAGTTATTAAGGGATGAAAAATCCCTCTATATAAATATCTCTCACTTATTTAAA |  | 0.535 | 
52 | ACAGACGAAGGAGCCGCAAAGAAGTTATTAAGGGATGAAAAATCCGTCAATATAAATATCTCTCACTTATTTAAA |  | 0.355 | 
53 | ACAGACGAAGGAGCCGCAAAGAAGTTATTAAGGGATGAAAAATCCTTCAATATAAATATCTCTCACTTATTTAAA | 0.355 | 0.505 | 
54 | ACAGACGAAGGAGCCGCAAAGAAGTTATTAAGGGATGAAAAATCGCTCAATATAAATATCTCTCACTTATTTAAA |  | 0.0823 | 
55 | ACAGACGAAGGAGCCGCAAAGAAGTTATTAAGGGATGAAAAATCTCTCAATATAAATATCTCTCACTTATTTAAA |  | 0.506 | 
56 | ACAGACGAAGGAGCCGCAAAGAAGTTATTAAGGGATGAAAAATTCCTCAATATAAATATCTCTCACTTATTTAAA | 0.274 | 0.327 | 
57 | ACAGACGAAGGAGCCGCAAAGAAGTTATTAAGGGATGAAAACTCCCTCAATATAAATATCTCTCACTTATTTAAA | 0.816 |  | 
58 | ACAGACGAAGGAGCCGCAAAGAAGTTATTAAGGGATGAAATATCCCTCAATATAAATATCTCTCACTTATTTAAA |  | 0.586 | 
59 | ACAGACGAAGGAGCCGCAAAGAAGTTATTAAGGGATGAACAATACCTCAATATAAATATCTCTCACTTATTTAAA |  | 0.229 | 
60 | ACAGACGAAGGAGCCGCAAAGAAGTTATTAAGGGATGAACAATCACTCAATATAAATATCTCTCACTTATTTAAA |  | 0.105 | 
